Assays:
[1] = tested on: anti-glycocalicin antibodies; conditions: competitive ELISA, literature; cited from earlier work
[2] = target: T1, binding of von Willebrand factor and chimeric protein (glycoprotein Ib) (Homo sapiens, UniProt P04275+P07359); experiment: Detection of glycocalicin in plasma by ELISA using anti-mouse IgG-Fc antibodies; set-up: made in house; host or cells: CHOdhfr- cells transfected with pSDGPIbIgG1Fc; unpurified serum-free culture supernatant; conditions: diluted human plasma, based on reported blood concentration about 2 μg/ml
Experimental: Immobilization of a mixed solution of von Willebrand factor and botrocetin on a 96-well multititer plate was attained as follows. First, a physiological saline solution of von Willebrand factor (250 μg/ml) and a physiological saline solution of botrocetin (500 μg/ml), which were prepared in a conventional manner, were appropriately diluted, and mixed at the concentration ratios shown in FIG. 2. Then, 50 μl of each mixture was added to each well of a 96-well multititer plate (Maxisorp, produced by Nunc). […]
Each well was washed 5 times with TBS (150 μl) containing 0.05% Tween-20, and added with 100 μl of 100 mM NaHCO3 solution containing 10 mM MgCl2, in which p-nitrophenylphosphate was dissolved at 1 mg/ml, to carry out the color development reaction for about 1 hour. After the color development, absorbance at 405 nm was measured.
The detection was carried out in the same manner as that of Example 4 <1> except that von Willebrand factor was immobilized by using a mixed solution (TBS) containing 2.5 μg/ml of von Willebrand factor and 2.5 μg/ml of botrocetin, and a binding inhibition substance of which inhibitory activity was desired to be measured was added to the reaction of the immobilized von Willebrand factor and the culture supernatant of the chimeric protein producing cells. […]

[3] = target: T1, binding of von Willebrand factor and chimeric protein (glycoprotein Ib); experiment: Detection of glycocalicin in plasma using chimeric protein labeled with europium (Eu); set-up: made in house; host or cells: CHOK1 cells transfected with pMikGPIbFc; purified on a Protein A column and labelled with europium; conditions: diluted human plasma, based on reported blood concentration about 2 μg/ml
Experimental: The detection was carried out in the same manner as that of Example 4 <2> except that svon Willebrand factor was immobilized by using a mixed solution (TBS) containing 2.5 μg/ml of von Willebrand factor and 2.5 μg/ml of botrocetin, and a binding inhibition substance of which inhibitory activity was desired to be measured was added to the reaction of the immobilized von Willebrand factor and the chimeric protein labeled with europium (Eu).
Each human plasma independently prepared in the same manner as the above <1> were successively diluted 2-fold with TBS (8 times of dilution in total), and 25 μl each of the diluted plasma was added to each well of a von Willebrand factor immobilized plate prepared in the same manner as in Example 5 <1> (microtitration plate DELFIA, 1244-550, produced by Pharmacia Biotech, was used as the base plate). Further, 25 μl a solution of the chimeric protein labeled with europium (Eu) in assay buffer prepared in the same manner as in Example 4 <1> (100 ng/ml, Assay Buffer; 1244-106, produced by Pharmacia Biotech) was added to each well of the plate for reaction. The subsequent washing and measurement were performed in the same manner as in Example 5 <2>, and the average values of the results are shown in FIG. 7.

## glycocalicin: enzymatically cleaved extracellular portion of platelet membrane glycoprotein Ibα chain, about 135 kDa
[1]
  IC50 value of the glycocalicin concentration showing competitive inhibition: about 4 μg/ml
[2]
  Glycocalicin concentration showing 50% binding inhibition: about 400 ng/ml
[3]
  Glycocalicin concentration showing 50% binding inhibition: about 60 ng/ml

From patent US7608695B2, “Substance with antithrombotic activity and method for detecting glycokallidin” (Ajinomoto Co., Inc., priority 1998, dated 2009)
